As usually defined, the Kd is the constant that tells how readily two partners part at equilibrium.

The target in assay [1] is human µ opiate receptor (human). The assay is described as follows: displacement of [3H]DAMGO from COS cells expressing hµOR1; paragraph 40 says 'low affinities', CLM-00014 calls the value a KD. The protocol:
(§1) COS cells were transfected by electroporation with 20 µg/10^7 cells of plasmid pcDNA1hµOR1, grown for two to three days and tested for opiate receptor expression by radioligand binding as described, except that whole cell suspensions were used. Adenyl cyclase activities were assessed by radioimmunoassay as described. Cells transfected with the pcDNA1 vector alone served as negative controls.

The target is the same in assay [2]. The assay is described as follows: saturation radioligand binding, whole COS cells transfected with pcDNA1hµOR1. The procedure: as §1
For assay [3] the target is unchanged. Description: [3H]DAMGO binding to COS cells expressing hµOR1, with against without 50 µM Gpp(NH)p. The procedure:
as §1

Assay [4] shares this target. Description: [3H]DAMGO binding to COS cells expressing hµOR1, with sodium chloride as low as 5 mM; CLM-00019 ties this to DAMGO. The protocol:
as §1

Assay [5] has the same target. Description: displacement of [3H]DAMGO from COS cells expressing hµOR1; 'low affinities of less than 100 nM' is read as weaker than 100 nM. The protocol: as §1
Background: Loss of bound radioactivity is the signal in a displacement assay; it reports binding, not function.

Non-standard residues stand in square brackets, D forms with d. No end group written: not given here. *: point of attachment. NMeF = CN[C@@H](Cc1ccccc1)C(=O)O; NHCH2CH2OH = OCCN*

B1: dynorphin A 1-17 (peptide)
peptide: YGGFLRRIRPKLKWDNQ
For the molecule B1, the Kd with human µ opiate receptor [1] was 284 nM. This lies in the sub-micromolar range.

B2: (D-ala^2, N-methyl-phe^4, glyol^5) enkephalin (peptide)
peptide: Y[dA]G[NMeF][NHCH2CH2OH]
modifications: not fully specified (C-terminus); printed as (D-ala^2, N-methyl-phe^4, glyol^5) enkephalin; also: [3H] label in binding assays
The molecule B2 displayed a Kd in the assay with human µ opiate receptor [2] of 1.2 nM. The “fold reduction of affinity with 50 µM Gpp(NH)p” value with human µ opiate receptor [3] is above 3 fold. For the same molecule, in the assay with human µ opiate receptor [4], the “fold reduction of binding affinity with 5 mM sodium chloride” value was determined as 2 fold.

B3: DPDPE (D-pen^2, D-pen^5 enkephalin) (peptide)
peptide: YXGFX
modifications: D-penicillamine at 2 and at 5 (written X)
Molecule B3 yielded a Kd in the assay with human µ opiate receptor [5] above 100 nM.

The values above are taken from patent publication US6258556, “cDNA and genomic clones encoding human µ opiate receptor and the purified gene product” (The United States of America as represented by the …, dated 2001).
